Earlier results on 1 substance are cited in paper PMC3577484.

Several values for one entry are separate records, joined by “and”; a condition that tells them apart may be missing. Identical values can stand only once.

The target of this data set is insulin receptor (Xenopus laevis) (UniProt Q9PVZ4). Kind of data set: Scatchard radioligand binding.
UniProt Q9PVZ4, sequence (Q9PVZ4 759-1362): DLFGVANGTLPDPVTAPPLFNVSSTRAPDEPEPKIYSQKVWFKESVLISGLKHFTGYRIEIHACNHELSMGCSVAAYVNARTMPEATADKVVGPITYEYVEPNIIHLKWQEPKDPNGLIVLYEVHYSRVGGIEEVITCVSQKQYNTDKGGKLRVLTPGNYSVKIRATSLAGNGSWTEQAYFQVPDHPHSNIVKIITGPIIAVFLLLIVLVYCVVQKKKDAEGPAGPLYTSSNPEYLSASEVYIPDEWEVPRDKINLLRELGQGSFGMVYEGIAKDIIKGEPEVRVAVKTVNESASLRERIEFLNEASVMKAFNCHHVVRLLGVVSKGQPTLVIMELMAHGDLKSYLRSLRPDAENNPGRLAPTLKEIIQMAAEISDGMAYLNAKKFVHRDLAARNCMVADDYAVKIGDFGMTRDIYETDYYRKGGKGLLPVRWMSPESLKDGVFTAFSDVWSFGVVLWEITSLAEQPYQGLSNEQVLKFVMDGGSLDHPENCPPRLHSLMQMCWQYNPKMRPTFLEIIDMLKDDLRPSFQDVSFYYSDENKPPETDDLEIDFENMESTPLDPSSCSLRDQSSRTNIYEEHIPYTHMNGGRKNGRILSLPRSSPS

insulin, sequence (F8WCM5 25-54): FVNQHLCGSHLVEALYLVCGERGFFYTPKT
insulin, sequence (P01308 90-110, further chain): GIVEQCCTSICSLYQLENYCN

What is called Kd is a measure of binding affinity in units of concentration. insulin (from UniProt P01308): the Kd was 0.886 nM and 5.32 nM.
